Our source for the Kd and ratio to parent values is paper PMC300677.

In the experiment the target is isolated iron-loaded transferrin C-lobe (Fe-C-lobe). In words: biosensor binding assay (SPR), equilibrium analysis.

On to “soluble human transferrin receptor 1 (TfR) ectodomain, wild type (from UniProt P02786) D125K”, for which, where the note is “KD1”, the Kd came out at 1000 nM and the ratio to parent came out at 1.2. Besides, under “KD2”, the Kd was determined as 2600 nM and the ratio to parent was determined as 0.8.

For “soluble human transferrin receptor 1 (TfR) ectodomain, wild type (from UniProt P02786) F760A”, under “KD1”, the Kd is 1900 nM and the ratio to parent was found to be 2.4. Further, where the note is “KD2”, the Kd was determined as 2700 nM and the ratio to parent is 0.8.

Turning to “soluble human transferrin receptor 1 (TfR) ectodomain, wild type (from UniProt P02786) R651A”, under “KD1, KD2 relative to wild-type, single entry”, the ratio to parent is > 1000.

In the case of “soluble human transferrin receptor 1 (TfR) ectodomain, wild type (from UniProt P02786) Y123S”, under “KD1”, the equilibrium dissociation constant (Kd) turned out to be 800 nM and the ratio to parent is 1. Besides, under “KD2”, the Kd is 5700 nM and the ratio to parent turned out to be 1.7.

Broadly, the Kd is the equilibrium constant for the complex coming apart.
